Assay results published in US20240116985A1 (published 2024).
Starred links: 1 amine or outer side, 2 acyl side, 3 side chain; linkers in the order of their positions; H or OH if unused. Positions of bridges follow the written chain, without caps; N, C: chain ends. Non-standard residues stand in square brackets, D forms with d. Primed or numbered codes have the meaning given here. *: point of attachment. B5(18) = 2,2-bis(4-pentenyl)glycine (2-amino-2-(pent-4-en-1-yl)hept-6-enoic acid), stitching residue, C=CCCCC(CCCC=C)(N[*:1])C(=O)[*:2]; B5(24) = 2-amino-2-(pent-4-en-1-yl)hept-6-enoic acid, 2,2-bis(4-pentenyl)glycine (stitching residue), C=CCCCC(CCCC=C)(N[*:1])C(=O)[*:2]; B5(4) = 2,2-bis(4-pentenyl)glycine = 2-amino-2-(pent-4-en-1-yl)hept-6-enoic acid (stitching residue), C=CCCCC(CCCC=C)(N[*:1])C(=O)[*:2]; PyrS = (S)-1-((allyloxy)carbonyl)-3-aminopyrrolidine-3-carboxylic acid, C=CCOC(=O)N1CC[C@@](N[*:1])(C(=O)[*:2])C1; B5(3) = 2,2-bis(4-pentenyl)glycine (stitching residue), C=CCCCC(CCCC=C)(N[*:1])C(=O)[*:2]; B5 = 2-amino-2-(pent-4-en-1-yl)hept-6-enoic acid, C=CCCCC(CCCC=C)(N[*:1])C(=O)[*:2]; Phe(F5) = N[C@@H](Cc1c(F)c(F)c(F)c(F)c1F)C(=O)O; Phe(3,4-F2) = N[C@@H](Cc1ccc(F)c(F)c1)C(=O)O; Phe(3-F) = N[C@@H](Cc1cccc(F)c1)C(=O)O; Phe(3-Me) = Cc1cccc(C[C@H](N)C(=O)O)c1; 2Nal = N[C@@H](Cc1ccc2ccccc2c1)C(=O)O; Bta = N[C@@H](Cc1csc2ccccc12)C(=O)O; αAllylPro = C=CC[C@@]1(C(=O)O)CCCN1; Azidoacetyl = [N-]=[N+]=NCC(=O)*; hPhe = N[C@@H](CCc1ccccc1)C(=O)O; 3Pal = N[C@@H](Cc1cccnc1)C(=O)O; R8 = C=CCCCCCC[C@@](C)(N)C(=O)O; S8 = C=CCCCCCC[C@](C)(N)C(=O)O; Nicotinoyl = O=C(c1cccnc1)*; Picolinoyl = O=C(c1ccccn1)*; Nle = CCCC[C@H](N)C(=O)O; PhAc = O=C(Cc1ccccc1)*

B1: I-598 (peptide)
peptide: Nicotinoyl-[αAllylPro]DI[B5]DEAAFQ[S8]F[Bta]Q-NH2
modifications: staple 1-4, 4-11
notes: Stapled peptide composition; N-terminal cap Nic
B2: I-591 (peptide)
peptide: Ac-[αAllylPro]DI[B5(4)]DEK(Azidoacetyl)AFQ[S8]F[Bta]Q-NH2
modifications: staple 1-4, 4-11; not fully specified; printed as Ac-PL3-Asp-Ile-B5-Asp-Glu-[AzAc]Lys-Ala-Phe-Gln-S8-Phe-BztA-Gln-NH2
notes: Stapled peptide composition
B3: I-589 (peptide)
peptide: XDKXDEAAFQXFXQ
modifications: not fully specified; Ac-PL3-Asp-[AzAc]Lys-B5-Asp-Glu-Ala-Ala-Phe-Gln-S8-Phe-BztA-Gln-NH2; stapled PL3(1)-B5(4) and B5(4)-S8(11) by olefin metathesis
notes: Stapled peptide composition; same description as I-590, earlier eluting HPLC peak (staple isomer)
B4: I-602 (peptide)
peptide: XDIXDEAAFQXFXQ
modifications: 2PyPrpc-PL3-Asp-Ile-B5-Asp-Glu-Ala-Ala-Phe-Gln-S8-Phe-BztA-Gln-NH2; stapled PL3(1)-B5(4) and B5(4)-S8(11) by olefin metathesis
notes: Stapled peptide composition; N-terminal cap 2PyPrpc
B5: I-576 (peptide)
peptide: XDLXDEAAFNXFXQ
modifications: not fully specified; Ac-PL3-Asp-Leu-B5-Asp-Glu-Ala-Ala-Phe-Asn-S8-Phe-BztA-Gln-NH2; stapled PL3(1)-B5(4) and B5(4)-S8(11) by olefin metathesis
notes: Stapled peptide composition; same description as I-577, earlier eluting HPLC peak (staple isomer)
B6: I-599 (peptide)
peptide: Picolinoyl-[αAllylPro]DI[B5]DEAAFQ[S8]F[Bta]Q-NH2
modifications: staple 1-4, 4-11
notes: Stapled peptide composition; N-terminal cap Pic
B7: I-600 (peptide)
peptide: PhAc-[αAllylPro]DI[B5]DEAAFQ[S8]F[Bta]Q-NH2
modifications: staple 1-4, 4-11
notes: Stapled peptide composition; N-terminal cap Bnc
B8: I-577 (peptide)
peptide: XDLXDEAAFNXFXQ
modifications: not fully specified; Ac-PL3-Asp-Leu-B5-Asp-Glu-Ala-Ala-Phe-Asn-S8-Phe-BztA-Gln-NH2; stapled PL3(1)-B5(4) and B5(4)-S8(11) by olefin metathesis
notes: Stapled peptide composition; same description as I-576, later eluting HPLC peak (staple isomer)
B9: I-578 (peptide)
peptide: XDAXDDAAFQXFXQ
modifications: not fully specified; Ac-PL3-Asp-Ala-B5-Asp-Asp-Ala-Ala-Phe-Gln-S8-Phe-BztA-Gln-NH2; stapled PL3(1)-B5(4) and B5(4)-S8(11) by olefin metathesis
notes: Stapled peptide composition; the description may be misprinted
B10: I-586 (peptide)
peptide: Ac-[αAllylPro]DI[B5(24)]DEAA[Bta]Q[S8]FFQ-NH2
modifications: staple 1-4, 4-11; not fully specified; printed as Ac-PL3-Asp-Ile-B5-Asp-Glu-Ala-Ala-BztA-Gln-S8-Phe-Phe-Gln-NH2
notes: Stapled peptide composition
B11: I-601 (peptide)
peptide: XDIXDEAAFQXFXQ
modifications: Bnc-PL3-Asp-Ile-B5-Asp-Glu-Ala-Ala-Phe-Gln-S8-Phe-BztA-Gln-NH2; stapled PL3(1)-B5(4) and B5(4)-S8(11) by olefin metathesis
notes: Stapled peptide composition; N-terminal cap Bnc; same description as I-600, later eluting HPLC peak (staple isomer)
B12: I-597 (peptide)
peptide: Ac-[αAllylPro]DI[B5]DEAAFQ[S8]F[Bta]QK(Azidoacetyl)-NH2
modifications: staple 1-4, 4-11; not fully specified
notes: Stapled peptide composition; same description as I-596, later eluting HPLC peak (staple isomer)
B13: I-579 (peptide)
peptide: Ac-FDA[R8]DDAAFQ[PyrS]FWQ-NH2
modifications: staple 4-11; not fully specified; printed as Ac-Phe-Asp-Ala-R8-Asp-Asp-Ala-Ala-Phe-Gln-PyrS-Phe-Trp-Gln-NH2
notes: Stapled peptide composition
B14: I-596 (peptide)
peptide: XDIXDEAAFQXFXQK
modifications: not fully specified; Ac-PL3-Asp-Ile-B5-Asp-Glu-Ala-Ala-Phe-Gln-S8-Phe-BztA-Gln-[AzAc]Lys-NH2; stapled PL3(1)-B5(4) and B5(4)-S8(11) by olefin metathesis
notes: Stapled peptide composition
B15: I-581 (peptide)
peptide: XDIXDDAAFQXFXH
modifications: not fully specified; Ac-PL3-Asp-Ile-B5-Asp-Asp-Ala-Ala-Phe-Gln-S8-Phe-BztA-His-NH2; stapled PL3(1)-B5(4) and B5(4)-S8(11) by olefin metathesis
notes: Stapled peptide composition; same description as I-580, later eluting HPLC peak (staple isomer)
B16: I-197 (peptide)
peptide: Ac-[αAllylPro]DA[B5(4)][hPhe]EAAFV[S8]FWQ-NH2
modifications: staple 1-4, 4-11
notes: Stapled peptide composition; this is the later-eluting isomer composition
B17: I-196 (peptide)
peptide: Ac-[αAllylPro]DA[B5(4)][hPhe]EAAFV[S8]FWQ-NH2
modifications: staple 1-4, 4-11
notes: Stapled peptide composition; this is the earlier-eluting isomer composition

target: T1, full-length beta-Catenin (Uniprot ID P35222) (Homo sapiens (Human), UniProt P35222 1-781); experiment: fluorescence polarization competition; full-length beta-catenin, competitor 5FAM-TCF4(10-53) probe
T1 construct: The assay text says 'full-length beta-Catenin (Uniprot ID P35222)'; also called bCat; B-Catenin
T1 sequence: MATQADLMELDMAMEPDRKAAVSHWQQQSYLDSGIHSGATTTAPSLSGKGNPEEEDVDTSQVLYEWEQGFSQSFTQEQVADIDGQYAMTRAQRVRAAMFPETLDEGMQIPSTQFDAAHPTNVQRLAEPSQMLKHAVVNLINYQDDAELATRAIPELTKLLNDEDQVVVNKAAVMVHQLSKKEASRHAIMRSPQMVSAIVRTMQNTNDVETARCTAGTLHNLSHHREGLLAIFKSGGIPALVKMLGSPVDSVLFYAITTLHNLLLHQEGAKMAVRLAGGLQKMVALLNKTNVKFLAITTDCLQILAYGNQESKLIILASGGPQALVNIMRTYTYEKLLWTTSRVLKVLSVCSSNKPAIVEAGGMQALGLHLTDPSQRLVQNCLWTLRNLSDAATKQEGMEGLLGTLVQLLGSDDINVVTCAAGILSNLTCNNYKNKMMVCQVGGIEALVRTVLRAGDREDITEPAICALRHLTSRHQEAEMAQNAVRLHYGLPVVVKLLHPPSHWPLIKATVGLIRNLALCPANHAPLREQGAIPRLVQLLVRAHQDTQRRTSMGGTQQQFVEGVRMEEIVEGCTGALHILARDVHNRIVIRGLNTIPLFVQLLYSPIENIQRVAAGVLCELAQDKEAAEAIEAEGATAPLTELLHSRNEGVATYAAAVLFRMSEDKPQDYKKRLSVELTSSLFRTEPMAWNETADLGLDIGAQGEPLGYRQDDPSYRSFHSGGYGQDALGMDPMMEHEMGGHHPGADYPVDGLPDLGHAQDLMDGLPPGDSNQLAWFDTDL
Experimental: The plate was incubated protected from light for 60 minutes at 20° C. prior to read. Reads were performed on a CLARIOstar plate reader (BMG Labtech) in duplicate, and data were fitted to a 1:1 binding model with hill slope using an in-house script. All provided concentrations are final concentrations.

Row | Binder | EC50 [nM]
1 | Ac-[αAllylPro]DI[B5]DDAAFQ[S8]F[Bta]H-NH2 (staple 1-4, 4-11; not fully specified, Stapled peptide composition) [I-580] | 114
2 | B1 | 845
3 | Ac-[αAllylPro]DI[B5]DEAAFK(Azidoacetyl)[S8]F[Bta]Q-NH2 (staple 1-4, 4-11, Stapled peptide composition) [I-594] | 87
4 | Ac-[αAllylPro]DI[B5]DQAAFQ[S8]F[Bta]Q-NH2 (staple 1-4, 4-11, Stapled peptide composition) [I-603] | 392
5 | B2 | 64
6 | Ac-[αAllylPro]DI[B5]DEAAFQ[S8]F[Bta]K(Azidoacetyl)-NH2 (staple 1-4, 4-11, Stapled peptide composition) [I-595] | 57
7 | Ac-[αAllylPro]DK(Azidoacetyl)[B5(4)]DEAAFQ[S8]F[Bta]Q-NH2 (staple 1-4, 4-11; not fully specified, Stapled peptide composition) [I-590] | 45
8 | Ac-[αAllylPro]DI[B5]DEK(Azidoacetyl)AFQ[S8]F[Bta]Q-NH2 (staple 1-4, 4-11; not fully specified, Stapled peptide composition) [I-592] | 24
9 | B3 | 48
10 | Ac-[αAllylPro]DI[B5]DEAK(Azidoacetyl)FQ[S8]F[Bta]Q-NH2 (staple 1-4, 4-11, Stapled peptide composition) [I-593] | 68
11 | Ac-[αAllylPro]DI[B5(24)]FEAAFQ[S8]D[Bta]Q-NH2 (staple 1-4, 4-11, Stapled peptide composition) [I-587] | 5000
12 | B4 | 3150
13 | Ac-[αAllylPro]DI[B5(24)]DEAA[Bta]Q[S8]FFQ-NH2 (staple 1-4, 4-11; not fully specified, Stapled peptide composition) [I-585] | 5000
14 | B5 | 23
15 | B6 | 138
16 | B7 | 796
17 | B8 | 13
18 | B9 | 5000
19 | B10 | 5000
20 | B11 | 419
21 | Ac-[αAllylPro]FI[B5(24)]DEAADQ[S8]F[Bta]Q-NH2 (staple 1-4, 4-11, Stapled peptide composition) [I-588] | 5000
22 | B12 | 76
23 | B13 | 5000
24 | B14 | 112
25 | B15 | 112

target: T2, full-length beta-Catenin (Uniprot ID P35222) (Homo sapiens (Human), UniProt P35222 1-781); experiment: AlphaScreen (nickel chelate) competition; full-length beta-catenin + biotin-TCF4(10-53) probe as competitor; peptide titrated
T2 construct: Used full-length in the FP and AlphaScreen assays; also called B-Catenin; bCat
T2 sequence: T1 sequence
Experimental: Equal volume of the titrated peptide was added to the plate and incubated for 15 minutes at 20° C. Then 4 uL of donor and 4 uL acceptor beads at 10 ug/mL were added to the plate, for a 16 uL reaction pool and protected from light for 60 minutes at 20° C. prior to read. Reads were performed on a CLARIOstar plate reader (BMG Labtech) in duplicate, and data were fitted to a 1:1 binding model with hill slope using an in-house script. All provided concentrations are final concentrations.

Row | Binder | EC50 [nM]
26 | Ac-[αAllylPro]DA[B5(18)]DEAA[Phe(3,4-F2)]A[S8]F[2Nal]A-NH2 (staple 1-4, 4-11, Stapled peptide composition) [I-185] | 2660
27 | Ac-[αAllylPro]DA[B5(4)]D[hPhe]AAFV[S8]FWQ-NH2 (staple 1-4, 4-11, Stapled peptide composition) [I-195] | 2180
28 | Ac-[αAllylPro]DA[B5(4)][3Pal]EAAFV[S8]FWQ-NH2 (staple 1-4, 4-11, Stapled peptide composition) [I-213] | 8050
29 | Ac-[αAllylPro]FA[B5(3)]DEAAFV[S8]FWQ-NH2 (staple 1-4, 4-11, Stapled peptide composition) [I-201] | 6160
30 | Ac-[αAllylPro]DA[B5(4)]HEAAFV[S8]FWQ-NH2 (staple 1-4, 4-11, Stapled peptide composition) [I-206] | 2140
31 | Ac-[αAllylPro]YA[B5(3)]DEAAFV[S8]FWQ-NH2 (staple 1-4, 4-11, Stapled peptide composition) [I-202] | 7880
32 | Ac-[αAllylPro][Phe(3-F)]A[B5(3)]DEAAFV[S8]FWQ-NH2 (staple 1-4, 4-11, Stapled peptide composition) [I-204] | 7280
33 | Ac-[αAllylPro][Phe(3-Me)]A[B5(3)]DEAAFV[S8]FWQ-NH2 (staple 1-4, 4-11, Stapled peptide composition) [I-203] | 5990
34 | Ac-[αAllylPro]DA[B5(4)]DEAAFV[S8][Phe(F5)]WQ-NH2 (staple 1-4, 4-11, Stapled peptide composition) [I-183] | 3770
35 | B16 | 6140
36 | B17 | 5510
37 | Ac-[αAllylPro]DA[B5(3)][Nle]EAAFV[S8]FWQ-NH2 (staple 1-4, 4-11, Stapled peptide composition) [I-205] | ≥ 10000
